# In paper PMC9482650, “Quantitative fragmentomics allow affinity mapping of interactomes” (Nature Communications, 2022):
# T1: PDZD2_2, O15018
# T1 sequence (O15018 329-429, limits assumed, looked up): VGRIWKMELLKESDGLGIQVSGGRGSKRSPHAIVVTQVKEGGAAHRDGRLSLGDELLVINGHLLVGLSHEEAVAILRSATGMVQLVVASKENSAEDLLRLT
# T2: ARHGEF11, O15085
# T2 sequence (O15085 42-136, limits assumed, looked up): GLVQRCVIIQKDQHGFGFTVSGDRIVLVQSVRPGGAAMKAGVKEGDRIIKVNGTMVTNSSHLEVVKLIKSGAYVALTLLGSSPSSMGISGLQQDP
# T3: CARD11, Q9BXL7
# T3 sequence (Q9BXL7 662-765, limits assumed, looked up): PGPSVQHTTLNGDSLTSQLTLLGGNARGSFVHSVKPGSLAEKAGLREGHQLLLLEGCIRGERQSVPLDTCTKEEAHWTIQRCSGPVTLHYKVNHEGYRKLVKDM
# T4: FRMPD1, Q5SYB0
# T4 sequence (Q5SYB0 52-145, limits assumed, looked up): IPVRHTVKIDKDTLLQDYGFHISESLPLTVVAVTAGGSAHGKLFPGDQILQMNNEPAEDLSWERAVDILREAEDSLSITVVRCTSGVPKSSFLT
# T5: LNX2_2, Q8N448
# T5 sequence (Q8N448 334-432, limits assumed, looked up): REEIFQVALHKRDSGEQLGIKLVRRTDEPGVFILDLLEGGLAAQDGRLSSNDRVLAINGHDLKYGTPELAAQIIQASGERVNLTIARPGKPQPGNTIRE
# T6: PTPN13_1, Q12923
# T6 sequence (Q12923 1088-1188, limits assumed, looked up): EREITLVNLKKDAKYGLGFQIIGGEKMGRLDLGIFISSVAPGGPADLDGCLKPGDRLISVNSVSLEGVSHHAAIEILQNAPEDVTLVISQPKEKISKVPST
# T7: RAPGEF6, Q8TEU7
# T7 sequence (Q8TEU7 525-625, limits assumed, looked up): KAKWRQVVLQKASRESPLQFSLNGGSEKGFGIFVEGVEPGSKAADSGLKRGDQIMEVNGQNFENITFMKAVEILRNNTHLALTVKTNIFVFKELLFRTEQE
# T8: HTRA4, P83105
# T8 sequence (P83105 378-476, limits assumed, looked up): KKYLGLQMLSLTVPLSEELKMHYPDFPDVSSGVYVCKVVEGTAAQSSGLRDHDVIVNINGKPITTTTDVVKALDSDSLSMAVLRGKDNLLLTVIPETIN
# T9: GRIP1_4, Q9Y3R0
# T9 sequence (Q9Y3R0 467-571, limits assumed, looked up): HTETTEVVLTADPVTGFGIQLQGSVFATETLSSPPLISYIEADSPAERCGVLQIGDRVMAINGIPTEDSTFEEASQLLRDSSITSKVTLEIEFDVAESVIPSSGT
# T10: PDZRN3_1, Q9UPQ7
# T10 sequence (Q9UPQ7 244-349, limits assumed, looked up): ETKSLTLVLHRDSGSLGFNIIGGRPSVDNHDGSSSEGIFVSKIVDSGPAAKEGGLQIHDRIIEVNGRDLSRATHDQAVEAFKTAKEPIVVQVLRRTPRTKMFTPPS
# T11: DVL3, Q92997
# T11 sequence (Q92997 244-331, limits assumed, looked up): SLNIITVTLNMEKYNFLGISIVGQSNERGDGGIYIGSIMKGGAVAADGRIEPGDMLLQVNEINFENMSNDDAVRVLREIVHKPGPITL
# T12: LNX2_3, Q8N448
# T12 sequence (Q8N448 463-564, limits assumed, looked up): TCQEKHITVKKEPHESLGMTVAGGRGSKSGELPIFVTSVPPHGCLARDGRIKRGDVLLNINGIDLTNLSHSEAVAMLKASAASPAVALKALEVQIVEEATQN
# Columns and labels:
# Experiment in all cases: holdup assay
# Parameters in all cases: key: below the threshold = too weak to quantify, mostly under pKd 3.1 to 4
# Details in all cases: plain residues with an end cap or a label only (N-terminal biotin on a linker: ado-ado)
# [1] = target: T1, PDZD2_2, O15018
# [2] = target: Inadl_3, Q8NI35
# [3] = target: T2, ARHGEF11, O15085
# [4] = target: LNX1_3, Q8TBB1
# [5] = target: T3, CARD11, Q9BXL7
# [6] = target: GORASP1, Q9BQQ3
# [7] = target: MAGI2_5, Q86UL8
# [8] = target: T4, FRMPD1, Q5SYB0
# [9] = target: LIMK2, P53671
# [10] = target: NOS1, P29475
# [11] = target: MAGI1_2, Q96QZ7
# [12] = target: T5, LNX2_2, Q8N448
# [13] = target: T6, PTPN13_1, Q12923
# [14] = target: SNX27, Q96L92
# [15] = target: T7, RAPGEF6, Q8TEU7
# [16] = target: GRIP2_6, Q9C0E4
# [17] = target: GRID2IP_2, A4D2P6
# [18] = target: T8, HTRA4, P83105
# [19] = target: T9, GRIP1_4, Q9Y3R0
# [20] = target: NHERF4_2, Q86UT5
# [21] = target: GRIP2_3, Q9C0E4
# [22] = target: T10, PDZRN3_1, Q9UPQ7
# [23] = target: PARD3_3, Q8TEW0
# [24] = target: T11, DVL3, Q92997
# [25] = target: DLG5_1, Q8TDM6
# [26] = target: T12, LNX2_3, Q8N448
# Chain of GRIP2_3, Q9C0E4 (Q9C0E4 238-339): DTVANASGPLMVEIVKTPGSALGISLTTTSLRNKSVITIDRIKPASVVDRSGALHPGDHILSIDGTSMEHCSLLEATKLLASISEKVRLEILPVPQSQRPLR
# Chain of GRIP2_6, Q9C0E4 (Q9C0E4 648-740): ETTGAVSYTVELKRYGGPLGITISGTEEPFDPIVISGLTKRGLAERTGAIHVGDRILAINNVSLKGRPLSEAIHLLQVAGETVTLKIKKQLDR
# Chain of MAGI1_2, Q96QZ7 (Q96QZ7 456-580): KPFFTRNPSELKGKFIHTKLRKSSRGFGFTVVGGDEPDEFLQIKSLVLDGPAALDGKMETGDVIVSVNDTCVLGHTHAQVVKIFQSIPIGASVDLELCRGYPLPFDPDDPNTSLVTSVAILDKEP
# Chain of GORASP1, Q9BQQ3 (Q9BQQ3 1-208): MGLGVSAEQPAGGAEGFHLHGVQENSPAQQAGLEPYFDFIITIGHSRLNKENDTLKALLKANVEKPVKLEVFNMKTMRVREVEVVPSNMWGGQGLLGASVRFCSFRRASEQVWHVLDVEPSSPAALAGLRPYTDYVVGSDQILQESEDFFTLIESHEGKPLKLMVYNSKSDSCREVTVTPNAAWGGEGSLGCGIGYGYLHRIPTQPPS
# Chain of MAGI2_5, Q86UL8 (Q86UL8 915-1017): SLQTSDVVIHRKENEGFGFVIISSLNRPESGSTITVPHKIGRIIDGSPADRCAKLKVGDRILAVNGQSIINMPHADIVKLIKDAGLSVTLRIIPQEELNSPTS
# Chain of NHERF4_2, Q86UT5 (Q86UT5 220-308): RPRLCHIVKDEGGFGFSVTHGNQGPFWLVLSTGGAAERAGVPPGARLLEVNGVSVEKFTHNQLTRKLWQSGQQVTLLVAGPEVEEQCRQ
# Chain of DLG5_1, Q8TDM6 (Q8TDM6 617-713): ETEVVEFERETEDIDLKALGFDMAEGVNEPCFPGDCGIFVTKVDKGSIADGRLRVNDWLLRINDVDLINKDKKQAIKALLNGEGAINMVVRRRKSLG
# Chain of GRID2IP_2, A4D2P6 (A4D2P6 272-370): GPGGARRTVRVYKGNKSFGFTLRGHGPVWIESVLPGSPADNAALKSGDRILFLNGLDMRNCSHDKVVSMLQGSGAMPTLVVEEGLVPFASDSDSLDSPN
# Chain of LNX1_3, Q8TBB1 (Q8TBB1 500-596): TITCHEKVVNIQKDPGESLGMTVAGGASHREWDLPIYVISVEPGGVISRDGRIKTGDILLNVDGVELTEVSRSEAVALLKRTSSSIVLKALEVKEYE
# Chain of LIMK2, P53671 (P53671 143-248): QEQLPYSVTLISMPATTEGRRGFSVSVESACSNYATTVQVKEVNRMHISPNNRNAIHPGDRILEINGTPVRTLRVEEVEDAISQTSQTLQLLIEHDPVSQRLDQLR
# Chain of NOS1, P29475 (P29475 9-101): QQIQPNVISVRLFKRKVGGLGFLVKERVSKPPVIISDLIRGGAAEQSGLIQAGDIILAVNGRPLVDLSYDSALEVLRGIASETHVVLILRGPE
# Chain of PARD3_3, Q8TEW0 (Q8TEW0 582-685): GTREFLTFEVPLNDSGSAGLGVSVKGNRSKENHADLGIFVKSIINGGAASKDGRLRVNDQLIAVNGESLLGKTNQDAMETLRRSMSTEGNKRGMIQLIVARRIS
# Chain of Inadl_3, Q8NI35 (Q8NI35 359-469): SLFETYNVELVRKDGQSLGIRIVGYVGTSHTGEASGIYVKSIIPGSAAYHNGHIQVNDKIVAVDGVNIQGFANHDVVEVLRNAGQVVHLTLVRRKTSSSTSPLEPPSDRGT
Binder,pKd [1],pKd [2],pKd [3],pKd [4],pKd [5],pKd [6],pKd [7],pKd [8],pKd [9],pKd [10],pKd [11],pKd [12],pKd [13],pKd [14],pKd [15],pKd [16],pKd [17],pKd [18],pKd [19],pKd [20],also measured
"NVYGIESVKI [GRIA2, P42262]",3.63,below the threshold,3.58,below the threshold,below the threshold,3.58,below the threshold,below the threshold,below the threshold,3.71,below the threshold,3.85,below the threshold,below the threshold,below the threshold,3.64,below the threshold,3.74,below the threshold,below the threshold,pKd [21]: below the threshold; pKd [22]: below the threshold; pKd [23]: 3.78; pKd [24]: below the threshold; pKd [25]: 3.59; pKd [26]: below the threshold
"PSHPRLQTHV [KIRREL2, Q6UWL6]",4.23,below the threshold,4.06,below the threshold,below the threshold,below the threshold,3.58,below the threshold,below the threshold,below the threshold,4.85,3.5,below the threshold,below the threshold,below the threshold,below the threshold,4.08,3.6,below the threshold,below the threshold,pKd [21]: below the threshold; pKd [22]: below the threshold; pKd [23]: below the threshold; pKd [24]: below the threshold; pKd [25]: below the threshold; pKd [26]: below the threshold
"TISFTQTSQF [SLC1A1, P43005]",below the threshold,below the threshold,3.79,below the threshold,below the threshold,below the threshold,4.29,below the threshold,below the threshold,3.53,below the threshold,below the threshold,below the threshold,5.06,below the threshold,below the threshold,below the threshold,below the threshold,below the threshold,below the threshold,pKd [21]: below the threshold; pKd [22]: below the threshold; pKd [23]: below the threshold; pKd [24]: below the threshold; pKd [25]: below the threshold; pKd [26]: below the threshold
"GIKKITSTAL [RPS6KA3, P51812]",3.57,below the threshold,5.01,below the threshold,below the threshold,3.59,3.95,below the threshold,below the threshold,4.03,4.5,below the threshold,below the threshold,4.93,below the threshold,3.88,4.74,below the threshold,3.62,3.55,pKd [21]: 3.56; pKd [22]: 4.36; pKd [23]: 3.51; pKd [24]: below the threshold; pKd [25]: below the threshold; pKd [26]: 3.49
